Data from patent US20200164069A1 (BOSTON PHARMACEUTICALS, published 2020).

How the values were obtained:
[1] = molecular target: T1, recombinant cynomolgus monkey IL-21 (cynomolgus monkey (Macaca fascicularis), UniProt Q9HBE4 30-162 (human entry), limits assumed); test: cell-based or functional assay
[2] = molecular target: IL-21 (species not stated in the assay) (Homo sapiens (Human), UniProt Q9HBE4 25-162, Biotinylated in the competition ELISA of paragraph 259 (sites not given); unlabelled in the other results.); test: cell-based or functional assay
recombinant human IL-21 [3] = molecular target: T2, recombinant human IL-21 (human, UniProt Q9HBE4 30-162, limits assumed); test: cell-based or functional assay
[4] = molecular target: T1, recombinant cynomolgus monkey IL-21; test: cell-based or functional assay; remark: listed apart in the source
recombinant human IL-21 [5] = molecular target: T2, recombinant human IL-21; test: cell-based or functional assay; remark: listed apart in the source
IL-7 = molecular target: T3, IL-7 (UniProt P13232 26-177); test: ELISA on plate-coated cytokine (2 µg/ml)
T3 sequence (looked up): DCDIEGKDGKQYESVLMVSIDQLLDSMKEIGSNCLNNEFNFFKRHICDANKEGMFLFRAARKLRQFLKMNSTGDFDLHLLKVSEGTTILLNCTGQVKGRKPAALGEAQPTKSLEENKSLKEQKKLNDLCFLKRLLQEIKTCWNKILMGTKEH
Description: (§1) ELISA was used to test cross reactivity of lead clones. Cytokines tested include 11-2, IL-4, IL-7, IL-9, and IL-15. Maxisorp ELISA plate (NUNC) was coated with 2 μg/ml of different cytokines in PBS at 4° C. overnight. The plate was then blocked with 3% BSA in PBST (PBS+0.1% Tween) at room temperature for one hour. Purified lead clone IgGs were serially diluted in PBST+3% BSA and the mixture was then added to each ELISA plate well and further incubated at room temperature for half an hour. After washing, secondary antibody-HRP was added to each well for 1 hour. Wells were washed first with PBST and then with PBS and the TMB solution from Pierce was added to detect the secondary antibody. After 5′ the reaction was stopped by the addition of 1N sulfuric acid. The plates were then read in an ELISA reader at 450 nm to detect the binding.

IL-2 = IL-2 (UniProt P60568 21-153); test: ELISA on plate-coated cytokine (2 µg/ml)
Description: as §1

IL-4 = molecular target: T4, IL-4 (UniProt P05112 25-153); test: ELISA on plate-coated cytokine (2 µg/ml)
T4 sequence (looked up): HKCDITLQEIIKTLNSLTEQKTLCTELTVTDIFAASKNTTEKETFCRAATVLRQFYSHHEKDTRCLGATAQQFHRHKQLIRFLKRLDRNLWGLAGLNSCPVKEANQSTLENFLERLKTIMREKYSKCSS
Description: as §1

[6] = molecular target: T1, recombinant cynomolgus monkey IL-21; test: cell-based or functional assay; remark: listed apart in the source
recombinant human IL-21 [7] = molecular target: T2, recombinant human IL-21; test: cell-based or functional assay; remark: listed apart in the source
[8] = molecular target: T1, recombinant cynomolgus monkey IL-21; test: cell-based or functional assay; remark: listed apart in the source
recombinant human IL-21 [9] = molecular target: T2, recombinant human IL-21; test: cell-based or functional assay; remark: listed apart in the source
recombinant human IL-21 [10] = molecular target: T2, recombinant human IL-21; test: method not stated for this clone (Table 2, column Kd hu)
IL-15 = IL-15 (UniProt P40933 49-162); test: ELISA on plate-coated cytokine (2 µg/ml)
Description: as §1

Sequence of IL-21 (species not stated in the assay) (Q9HBE4 25-162 limits assumed): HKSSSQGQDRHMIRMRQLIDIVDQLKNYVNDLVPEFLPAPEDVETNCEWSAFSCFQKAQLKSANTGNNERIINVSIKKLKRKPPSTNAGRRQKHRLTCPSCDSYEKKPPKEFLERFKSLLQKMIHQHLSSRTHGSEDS
T1 sequence (Q9HBE4 other isoform, or with tags, fused parts or gaps limits assumed): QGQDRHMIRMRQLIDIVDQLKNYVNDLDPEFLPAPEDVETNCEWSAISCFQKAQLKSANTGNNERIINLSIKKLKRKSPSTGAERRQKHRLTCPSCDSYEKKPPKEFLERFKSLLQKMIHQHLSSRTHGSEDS
Sequence of IL-2 (P60568 21-153 limits assumed): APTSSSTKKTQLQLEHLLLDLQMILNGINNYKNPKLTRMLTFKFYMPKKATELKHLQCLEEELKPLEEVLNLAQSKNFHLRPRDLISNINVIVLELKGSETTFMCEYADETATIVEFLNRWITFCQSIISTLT
T2 sequence (Q9HBE4 30-162 limits assumed, form in doubt): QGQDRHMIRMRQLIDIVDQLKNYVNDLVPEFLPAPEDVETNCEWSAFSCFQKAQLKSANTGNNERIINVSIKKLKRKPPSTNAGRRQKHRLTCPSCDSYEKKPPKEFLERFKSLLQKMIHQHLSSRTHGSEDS
Sequence of IL-15 (P40933 49-162 limits assumed): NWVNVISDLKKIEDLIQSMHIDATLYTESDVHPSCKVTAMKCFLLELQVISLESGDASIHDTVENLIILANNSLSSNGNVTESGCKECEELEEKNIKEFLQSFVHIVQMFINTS

Binder	inhibition of IgG production by human B cells [1]	maximal inhibition in pSTAT3 assay [2]	IC50 of IL-21-induced proliferation of human naive CD4+ T cells (ATP, day 4) (recombinant human IL-21 [3])	inhibition of IgG production by human B cells (recombinant human IL-21 [3])	IC50 in PC differentiation assay (2 nM IL-21) [4]	IC50 in PC differentiation assay (2 nM IL-21) (recombinant human IL-21 [5])	binding result (IL-7)	binding result (IL-2)	binding result (IL-4)	IC50 in pSTAT3 assay (human PBMCs, 20 pM IL-21) [6]	IC50 in pSTAT3 assay (human PBMCs, 20 pM IL-21) (recombinant human IL-21 [7])	IC50 in NK-92 cell assay (IFNγ, 200 pM IL-21) [8]	IC50 in NK-92 cell assay (IFNγ, 200 pM IL-21) (recombinant human IL-21 [9])	Kd (recombinant human IL-21 [10])	binding result (IL-15)
murine monoclonal antibody 19E3 (antibody, V domains shown, also called 19E3.1) VH: QVQLQQPGSELVMPGASVKMSCKASGYIFTDYWMHWVKQRPGQGLEWIGTIDPSDNYTIYSQNFKGKATLTVDESSSTAYMLLSSLTSEDSAVYFCARYGFAMDYWGQGTSVTVSS VL: DIQLTQTTSSLSASLGDRVTISCRASQDISNFLNWYQQTPDGTVKLLIYYTSRLHSGVPSRFSGSGSGTDYSLTISNLEQEDIATYFCQQGHTLPRTFGGGTKLEIK	> 99%	100%	0.061 nM	> 99%	0.775 nM	1.53 nM	no binding	no binding	no binding	5.99 pM	3.15 pM	37 pM	41 pM	–	–
murine monoclonal antibody 9H10 (antibody, V domains shown, also called 9H10.1) VH: EVQLQQFGAEVVKPGASVKMSCKASGYTFTDYNMNWVKQSHEKSLEWIGDIHPKFHSTNYNQKFKGKATLTIDTSSSTAYMELRNLTSEDTAVYYCARVGNYVYFVMDYWGQGTSVTVSS VL: SIVMTQTPKFLLVSAGDRVTITCKASQSVSNDVAWYQQKPGQSPKLLIYYASNRYTGVPDRFSGSGYGTDFTFTISTVQAEDLAVYFCQQDYTSPWTFGGGTKLEIK	–	100%	–	–	29.8 nM	116 nM	no binding	no binding	no binding	160 pM	328 pM	3.43 nM	20.2 nM	0.108 nM	–
9F11-4 (antibody, IgG1, V domains shown) VH: EVQLVESGGGLVQPGGSLRLSCAASGFTFSDAWMDWVRQAPGKGLEWVAEIRSEADNHPTYYAESVKGRFTISRDDSKNSLYLQMNSLKTEDTAVYYCTEYDYEGFVHWGQGTLVTVSS VL: DIVMTQTPLSLSVTPGQPASISCRASKSVSTYGYSYMHWYLQKPGQPPQLLIYLASNLESGVPDRFSGSGSGTDFTLKISRVEAEDVGVYYCQHSRELPLTFGQGTKLEIK	–	100%	–	–	–	–	–	–	–	52.2 pM	12.1 pM	–	–	–	–
9F11-11 (antibody, IgG1, V domains shown) VH: EVQLVESGGGLVQPGGSLRLSCAASGFTFSDAWMDWVRQAPGKGLEWVAEIRSEADNHPTYYAESVKGRFTISRDDSKNSLYLQMNSLKTEDTAVYYCTEYDYEGFVHWGQGTLVTVSS VL: DIVLTQTPLSLSVTPGQPASISCRASKSVSTYGYSYMHWYLQKPGQPPQLLIYLASNLESGVPDRFSGSGSGTDFTLKISRVEAEDVGVYYCQHSRELPLTFGQGTKLEIK	–	100%	–	–	–	–	–	–	–	45.9 pM	13.6 pM	–	–	–	–
9F11-6 (antibody, IgG1, V domains shown) VH: EVQLVESGGGLVQPGGSLRLSCAASGFTFSDAWMDWVRQAPGKGLEWVAEIRSEADNHPTYYAESVKGRFTISRDDSKNSVYLQMNSLKTEDTAVYYCTEYDYEGFVHWGQGTLVTVSS VL: DIVMTQTPLSLSVTPGQPASISCRASKSVSTYGYSYMHWYLQKPGQPPQLLIYLASNLESGVPDRFSGSGSGTDFTLKISRVEAEDVGVYYCQHSRELPLTFGQGTKLEIK	–	100%	–	–	–	–	–	–	–	50.8 pM	13.2 pM	–	–	–	–
murine monoclonal antibody 8B6 (antibody, V domains shown, also called 8B6.1) VH: EVQLVESGGGSVKPGGSLKLSCAASGLTFSHYYMYWVRQTPEKRLEWVAIISDGGDYTHYSDSVKGRFTISRDNAKNNLYLQMSSLQSEDTAMYYCAGDYGYGYEGWFAYWGQGTLVTVST VL: DIVMTQSQKFMSTSVGDRVSVTCKASQNVDTYVAWYQQKPGQSPKALIYSTSYRYSGVPDRFTGSGSGTDFTLTISNVQSEDLAEYFCQQYNSYPWTFGGGTKLEIK	–	100%	–	–	8.9 nM	> 200 nM	no binding	no binding	no binding	228 pM	115 pM	771 pM	944 pM	–	no binding
K44VHa6-N56Q (antibody, IgG1, V domains shown) VH: QVQLVQSGAEVKKPGASVKVSCKASGYTFTDYWMHWVRQAPGQGLEWMGTIDPSDQYTIYSQNFKGRVTMTVDESTSTVYMELSSLRSEDTAVYYCARYGFAMDYWGQGTLVTVSS VL: DIQLTQSPSSLSASVGDRVTITCRASQDISNFLNWYQQKPGKAVKLLIYYTSRLHSGVPSRFSGSGSGTDYTLTISSLQPEDFATYYCQQGHTLPRTFGGGTKVEIKR	–	100%	–	–	0.659 nM	0.573 nM	no binding	no binding	no binding	9.75 pM	5.5 pM	60.3 pM	54.8 pM	0.000245 nM	–
K2Ha-N56Q (antibody, human IgG1, kappa, V domains shown) VH: QVQLVQSGAEVKKPGASVKVSCKASGYTFTDYWMHWVRQAPGQGLEWMGTIDPSDQYTIYSQNFKGRVTMTRDTSTSTVYMELSSLRSEDTAVYYCARYGFAMDYWGQGTLVTVSS VL: DIQLTQSPSSLSASVGDRVTITCRASQDISNFLNWYQQKPGKAVKLLIYYTSRLHSGVPSRFSGSGSGTDYTLTISSLQPEDFATYFCQQGHTLPRTFGGGTKVEIKR	–	100%	–	–	1.32 nM	0.618 nM	no binding	no binding	no binding	15.6 pM	18.7 pM	83.4 pM	99 pM	0.000403 nM	–
